Assay results: article PMC3188589, “Structural and Biochemical Studies of Human 4-hydroxy-2-oxoglutarate Aldolase: Implications for Hydroxyproline Metabolism in Primary Hyperoxaluria” (PLoS ONE, 2011)
Values joined by “and” are separate entries in the source; they are usually repeats but may differ in a detail not shown here. Identical values can stand only once.

Experiments:
human HOGA (hHOGA) = biological target: T1, human HOGA (hHOGA) (Homo sapiens, UniProt Q86XE5); assay: X-ray crystal structure, […] Å; assay type: binding; conditions: covalent Schiff base with Lys196; 10 mM sodium pyruvate in crystallization, pH 7.5, 20°C
T1 construct: gene HOGA1; His-tag (WT, Y140F) cleavable by PreScission leaving GPH, 33,097 Da tag-free; S77, N78 and S198 mutants as MBP fusion, MBP cleaved; tetramer
T1 sequence (Q86XE5 26-327): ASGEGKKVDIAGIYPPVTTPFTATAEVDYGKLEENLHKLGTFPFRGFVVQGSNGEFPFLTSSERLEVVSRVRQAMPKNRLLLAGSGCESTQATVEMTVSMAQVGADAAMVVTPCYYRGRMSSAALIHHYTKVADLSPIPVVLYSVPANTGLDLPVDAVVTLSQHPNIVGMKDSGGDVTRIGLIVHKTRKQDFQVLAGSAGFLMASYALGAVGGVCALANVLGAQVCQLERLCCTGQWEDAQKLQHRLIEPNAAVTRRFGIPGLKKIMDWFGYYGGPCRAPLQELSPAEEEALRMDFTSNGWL

bovine HOGA (bHOGA) = biological target: T2, bovine HOGA (bHOGA) (Bos taurus, UniProt Q0P5I5); assay: phenylhydrazine assay of glyoxylate formation; assay type: biochemical; conditions: racemic HOG; native enzyme from kidney mitochondria
T2 construct: gene HOGA1; native mature enzyme purified from kidney cortex mitochondria, begins at residue 26, 35,217 Da printed, no tag
T2 sequence (Q0P5I5 26-327): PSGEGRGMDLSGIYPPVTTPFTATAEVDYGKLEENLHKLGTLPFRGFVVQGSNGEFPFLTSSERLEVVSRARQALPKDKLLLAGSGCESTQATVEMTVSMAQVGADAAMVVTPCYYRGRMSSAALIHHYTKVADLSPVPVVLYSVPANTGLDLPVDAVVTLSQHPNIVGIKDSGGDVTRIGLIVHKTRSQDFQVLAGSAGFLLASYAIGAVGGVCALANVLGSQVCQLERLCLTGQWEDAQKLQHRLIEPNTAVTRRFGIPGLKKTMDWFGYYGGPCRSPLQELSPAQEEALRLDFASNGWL

purified protein = substrate: O=C(O)C(=O)CC(O)C(=O)O; assay: purified protein; assay type: biochemical, Homo sapiens; conditions: racemic HOG, 100 mM TRIS pH 8.5, 37°C, aldol cleavage
[1] = biological target: the molecule itself; assay: crystal structure; apoenzyme (2.5 A) and pyruvate-Schiff base complex (1.97 A), space group P6(4)22, one molecule in the asymmetric unit; the tetramer is generated by crystallographic symmetry
[2] = biological target: the molecule itself; assay: AUC; sedimentation equilibrium; His-tag free hHOGA at 0.43, 0.82, 1.25 mg/ml and a replicate at 0.45, 0.78, 1.14 mg/ml, two rotor speeds; 20 mM HEPES pH 7.5, 100 mM NaCl; fit to a dimer-tetramer model (HETEROANALYSIS, SEDPHAT); tetramer to dimers

With CC(=O)C(=O)O [pyruvate] the “X-ray crystal structure, 1.97 Å” value (human HOGA (hHOGA)) was “clear continuous electron density for the imine Schiff base adduct between the ε-amino group of”.

With O=C(O)C(=O)CC(O)C(=O)O (racemic) [HOG] the “phenylhydrazine assay of glyoxylate formation” value (bovine HOGA (bHOGA)) was “production of glyoxylate from HOG synthesized in-house”.

B1: human HOGA (hHOGA) (Homo sapiens; Y140F) (protein)
chain: ASGEGKKVDIAGIYPPVTTPFTATAEVDYGKLEENLHKLGTFPFRGFVVQGSNGEFPFLTSSERLEVVSRVRQAMPKNRLLLAGSGCESTQATVEMTVSMAQVGADAAMVVTPCFYRGRMSSAALIHHYTKVADLSPIPVVLYSVPANTGLDLPVDAVVTLSQHPNIVGMKDSGGDVTRIGLIVHKTRKQDFQVLAGSAGFLMASYALGAVGGVCALANVLGAQVCQLERLCCTGQWEDAQKLQHRLIEPNAAVTRRFGIPGLKKIMDWFGYYGGPCRAPLQELSPAEEEALRMDFTSNGWL
notes: His-tag (WT, Y140F) cleavable by PreScission leaving GPH, 33,097 Da tag-free; S77, N78 and S198 mutants as MBP fusion, MBP cleaved; tetramer
B1 was tested, and the Km (purified protein) was 8 ± 1 µM, the kcat (purified protein) was 5.2 ± 0.1 s⁻¹ and the kcat/Km (purified protein) was 650000 ± 81000 M⁻¹ s⁻¹.

B2: human HOGA (hHOGA) (Homo sapiens; S198A) (protein)
chain: ASGEGKKVDIAGIYPPVTTPFTATAEVDYGKLEENLHKLGTFPFRGFVVQGSNGEFPFLTSSERLEVVSRVRQAMPKNRLLLAGSGCESTQATVEMTVSMAQVGADAAMVVTPCYYRGRMSSAALIHHYTKVADLSPIPVVLYSVPANTGLDLPVDAVVTLSQHPNIVGMKDAGGDVTRIGLIVHKTRKQDFQVLAGSAGFLMASYALGAVGGVCALANVLGAQVCQLERLCCTGQWEDAQKLQHRLIEPNAAVTRRFGIPGLKKIMDWFGYYGGPCRAPLQELSPAEEEALRMDFTSNGWL
notes: as for B1
B2 showed a Km (purified protein) of 44 ± 2 µM, a kcat (purified protein) of 2.4 ± 0.1 s⁻¹ and a kcat/Km (purified protein) of 55000 ± 3000 M⁻¹ s⁻¹.

B3: human HOGA (hHOGA) (Homo sapiens; S198T) (protein)
chain: ASGEGKKVDIAGIYPPVTTPFTATAEVDYGKLEENLHKLGTFPFRGFVVQGSNGEFPFLTSSERLEVVSRVRQAMPKNRLLLAGSGCESTQATVEMTVSMAQVGADAAMVVTPCYYRGRMSSAALIHHYTKVADLSPIPVVLYSVPANTGLDLPVDAVVTLSQHPNIVGMKDTGGDVTRIGLIVHKTRKQDFQVLAGSAGFLMASYALGAVGGVCALANVLGAQVCQLERLCCTGQWEDAQKLQHRLIEPNAAVTRRFGIPGLKKIMDWFGYYGGPCRAPLQELSPAEEEALRMDFTSNGWL
notes: as for B1
B3 showed a Km (purified protein) of 77 ± 5 µM, a kcat (purified protein) of 7.8 ± 0.1 s⁻¹ and a kcat/Km (purified protein) of 101000 ± 7000 M⁻¹ s⁻¹.

B4: human HOGA (hHOGA) (Homo sapiens) (protein)
chain: ASGEGKKVDIAGIYPPVTTPFTATAEVDYGKLEENLHKLGTFPFRGFVVQGSNGEFPFLTSSERLEVVSRVRQAMPKNRLLLAGSGCESTQATVEMTVSMAQVGADAAMVVTPCYYRGRMSSAALIHHYTKVADLSPIPVVLYSVPANTGLDLPVDAVVTLSQHPNIVGMKDSGGDVTRIGLIVHKTRKQDFQVLAGSAGFLMASYALGAVGGVCALANVLGAQVCQLERLCCTGQWEDAQKLQHRLIEPNAAVTRRFGIPGLKKIMDWFGYYGGPCRAPLQELSPAEEEALRMDFTSNGWL
notes: as for B1
For B4, the Km (purified protein) was 11 ± 1 µM, the kcat (purified protein) was 6.1 ± 0.1 s⁻¹ and the kcat/Km (purified protein) was 555000 ± 50000 M⁻¹ s⁻¹.

B5: human HOGA (hHOGA) (Homo sapiens; S77A) (protein)
chain: ASGEGKKVDIAGIYPPVTTPFTATAEVDYGKLEENLHKLGTFPFRGFVVQGANGEFPFLTSSERLEVVSRVRQAMPKNRLLLAGSGCESTQATVEMTVSMAQVGADAAMVVTPCYYRGRMSSAALIHHYTKVADLSPIPVVLYSVPANTGLDLPVDAVVTLSQHPNIVGMKDSGGDVTRIGLIVHKTRKQDFQVLAGSAGFLMASYALGAVGGVCALANVLGAQVCQLERLCCTGQWEDAQKLQHRLIEPNAAVTRRFGIPGLKKIMDWFGYYGGPCRAPLQELSPAEEEALRMDFTSNGWL
notes: as for B1
In the case of B5, the Km (purified protein) is reported as 84 ± 5 µM, the kcat (purified protein) is reported as 2.5 ± 0.1 s⁻¹ and the kcat/Km (purified protein) is reported as 30000 ± 2000 M⁻¹ s⁻¹.

B6: human HOGA (hHOGA) (Homo sapiens; S77T) (protein)
chain: ASGEGKKVDIAGIYPPVTTPFTATAEVDYGKLEENLHKLGTFPFRGFVVQGTNGEFPFLTSSERLEVVSRVRQAMPKNRLLLAGSGCESTQATVEMTVSMAQVGADAAMVVTPCYYRGRMSSAALIHHYTKVADLSPIPVVLYSVPANTGLDLPVDAVVTLSQHPNIVGMKDSGGDVTRIGLIVHKTRKQDFQVLAGSAGFLMASYALGAVGGVCALANVLGAQVCQLERLCCTGQWEDAQKLQHRLIEPNAAVTRRFGIPGLKKIMDWFGYYGGPCRAPLQELSPAEEEALRMDFTSNGWL
notes: as for B1
B6 was tested, and the Km (purified protein) was 58 ± 8 µM, the kcat (purified protein) was 0.8 ± 0.1 s⁻¹ and the kcat/Km (purified protein) was 14000 ± 2000 M⁻¹ s⁻¹.

B7: human HOGA (hHOGA) (Homo sapiens; S77V) (protein)
chain: ASGEGKKVDIAGIYPPVTTPFTATAEVDYGKLEENLHKLGTFPFRGFVVQGVNGEFPFLTSSERLEVVSRVRQAMPKNRLLLAGSGCESTQATVEMTVSMAQVGADAAMVVTPCYYRGRMSSAALIHHYTKVADLSPIPVVLYSVPANTGLDLPVDAVVTLSQHPNIVGMKDSGGDVTRIGLIVHKTRKQDFQVLAGSAGFLMASYALGAVGGVCALANVLGAQVCQLERLCCTGQWEDAQKLQHRLIEPNAAVTRRFGIPGLKKIMDWFGYYGGPCRAPLQELSPAEEEALRMDFTSNGWL
notes: as for B1
For B7, the Km (purified protein) was 82 ± 7 µM, the kcat (purified protein) was 1.2 ± 0.1 s⁻¹ and the kcat/Km (purified protein) was 15000 ± 1000 M⁻¹ s⁻¹.

B8: human HOGA (hHOGA) (Homo sapiens; N78A) (protein)
chain: ASGEGKKVDIAGIYPPVTTPFTATAEVDYGKLEENLHKLGTFPFRGFVVQGSAGEFPFLTSSERLEVVSRVRQAMPKNRLLLAGSGCESTQATVEMTVSMAQVGADAAMVVTPCYYRGRMSSAALIHHYTKVADLSPIPVVLYSVPANTGLDLPVDAVVTLSQHPNIVGMKDSGGDVTRIGLIVHKTRKQDFQVLAGSAGFLMASYALGAVGGVCALANVLGAQVCQLERLCCTGQWEDAQKLQHRLIEPNAAVTRRFGIPGLKKIMDWFGYYGGPCRAPLQELSPAEEEALRMDFTSNGWL
notes: as for B1
In the case of B8, the Km (purified protein) is reported as 66 ± 4 µM, the kcat (purified protein) is reported as 7.6 ± 0.1 s⁻¹ and the kcat/Km (purified protein) is reported as 115000 ± 7000 M⁻¹ s⁻¹.

B9: human HOGA (hHOGA) (Homo sapiens; N78T) (protein)
chain: ASGEGKKVDIAGIYPPVTTPFTATAEVDYGKLEENLHKLGTFPFRGFVVQGSTGEFPFLTSSERLEVVSRVRQAMPKNRLLLAGSGCESTQATVEMTVSMAQVGADAAMVVTPCYYRGRMSSAALIHHYTKVADLSPIPVVLYSVPANTGLDLPVDAVVTLSQHPNIVGMKDSGGDVTRIGLIVHKTRKQDFQVLAGSAGFLMASYALGAVGGVCALANVLGAQVCQLERLCCTGQWEDAQKLQHRLIEPNAAVTRRFGIPGLKKIMDWFGYYGGPCRAPLQELSPAEEEALRMDFTSNGWL
notes: as for B1
For B9, the Km (purified protein) was 16 ± 1 µM, the kcat (purified protein) was 4 ± 0.1 s⁻¹ and the kcat/Km (purified protein) was 250000 ± 16000 M⁻¹ s⁻¹.

B10: human HOGA (hHOGA) (Homo sapiens; N78Q) (protein)
chain: ASGEGKKVDIAGIYPPVTTPFTATAEVDYGKLEENLHKLGTFPFRGFVVQGSQGEFPFLTSSERLEVVSRVRQAMPKNRLLLAGSGCESTQATVEMTVSMAQVGADAAMVVTPCYYRGRMSSAALIHHYTKVADLSPIPVVLYSVPANTGLDLPVDAVVTLSQHPNIVGMKDSGGDVTRIGLIVHKTRKQDFQVLAGSAGFLMASYALGAVGGVCALANVLGAQVCQLERLCCTGQWEDAQKLQHRLIEPNAAVTRRFGIPGLKKIMDWFGYYGGPCRAPLQELSPAEEEALRMDFTSNGWL
notes: as for B1
For B10, the Km (purified protein) was 281 ± 14 µM, the kcat (purified protein) was 6.2 ± 0.1 s⁻¹ and the kcat/Km (purified protein) was 22000 ± 1000 M⁻¹ s⁻¹.

B11: human 4-hydroxy-2-oxoglutarate aldolase (hHOGA), His-tag free (enzyme)
chain: GPHASGEGKKVDIAGIYPPVTTPFTATAEVDYGKLEENLHKLGTFPFRGFVVQGSNGEFPFLTSSERLEVVSRVRQAMPKNRLLLAGSGCESTQATVEMTVSMAQVGADAAMVVTPCYYRGRMSSAALIHHYTKVADLSPIPVVLYSVPANTGLDLPVDAVVTLSQHPNIVGMKDSGGDVTRIGLIVHKTRKQDFQVLAGSAGFLMASYALGAVGGVCALANVLGAQVCQLERLCCTGQWEDAQKLQHRLIEPNAAVTRRFGIPGLKKIMDWFGYYGGPCRAPLQELSPAEEEALRMDFTSNGWL
notes: three additional N-terminal residues left from the PreScission Protease recognition site after removal of the His-tag; the protein starts at residue 26; 302 residues in the mature form; Tetramer (dimer of dimers) in the crystal; dimer-tetramer equilibrium in solution; also called human HOGA; HOGA1; source: E. coli BL21*(DE3), purified (Ni-NTA, Q-Sepharose HP, Superdex 200); His-tag removed with …
For B11, the “stoichiometry N” value [1] was 4 and the Kd [2] was ~60 µM and 58 to 63 µM.
